Measured values: article PMC5648036

System: SerRS-Avi-biotin (human cytosolic seryl-tRNA synthetase) (Homo sapiens)
Assay: SPR

Work on WT tRNASer yielded a Kd of 3.3 nM.
